Measured values as given in publication PMC9172071, “Peach fruit PpNAC1 activates PpFAD3-1 transcription to provide ω-3 fatty acids for the synthesis of short-chain flavor volatiles”.

Molecular target: GST-PpNAC1 (Prunus persica (peach), UniProt M5WG30 1-363)
Experiment: EMSA; LightShift Chemiluminescent EMSA kit (Thermo Fisher); buffer, salt, pH and temperature not stated (refers to previous study)
Details: protein: recombinant; tags: GST (N-terminal, pGEX-4T-1); chain copies: 2; blunt

GST-PpNAC1, sequence (M5WG30 entry or part of it): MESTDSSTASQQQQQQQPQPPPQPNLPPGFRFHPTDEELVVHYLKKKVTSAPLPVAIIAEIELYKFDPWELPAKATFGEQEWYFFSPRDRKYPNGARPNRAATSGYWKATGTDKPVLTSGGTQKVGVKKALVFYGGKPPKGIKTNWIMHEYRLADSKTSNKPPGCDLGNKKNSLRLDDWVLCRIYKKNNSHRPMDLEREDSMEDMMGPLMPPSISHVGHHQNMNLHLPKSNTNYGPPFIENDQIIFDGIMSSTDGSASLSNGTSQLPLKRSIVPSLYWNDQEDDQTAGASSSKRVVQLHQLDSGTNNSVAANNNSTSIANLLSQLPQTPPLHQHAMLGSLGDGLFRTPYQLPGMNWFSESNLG

B1: Mutant-Probe1 (dsDNA)
DNA 1: AACCCCGCAGCAGCGTGCACTTTACCTGGTG
DNA 2: CACCAGGTAAAGTGCACGCTGCTGCGGGGTT
binding result: no binding
